The test system of assay [1] is HER2+ breast cancer cells (CRL2351). The assay can be described thus: Cytokine secretion of interferon treated HER2 CAR macrophages in co-culture (MSD). The format is cell-based, human. The conditions noted are these: 150 nM CAR mRNA, E:T 3:1, 48 hours co-culture. As for the experimental part:
Human macrophages were electroporated with 150 nM HER2 CAR mRNA comprising m6AGCap1 and PsU modifications. HER2+ breast cancer cells (CRL2351) were co-cultured with CAR macrophages after the macrophages were transfected with the CAR mRNA at an Effector (CAR macrophage) to Target (cancer cell) ratio of 3:1. Supernatant was collected 48 hours after the cancer cells and macrophages were co-cultured and cytokine levels were measured using a Meso Scale Discovery (MSD) instrument.

The test system of assay [2] is human macrophages. Description: Viability, CAR expression and M1/M2 markers of HER2 CAR mRNA electroporated macrophages cultured with cytokines. It counts as cell-based. The conditions noted are these: mRNA transfected CAR macrophages. Here is the method:
Human macrophages were electroporated with HER2 CAR mRNA comprising m6AGCap1 and PsU modifications. Cells were cultured with cytokines that induce an M1 phenotype such as IFN-alpha, IFN-beta, IFN-gamma, IFN-gamma plus lipopolysaccharide (LPS), TNF-alpha, IL-6 or a STING ligand (STING-L) for up to 48 hours and then cytokines were washed off and fresh media was added. CAR expression and M1 marker expression were measured on days 2 and 7 after transfection. Fluorescent labeled HER2+ breast cancer cells (CRL2351) were co-cultured with HER2 CAR macrophages two days after the macrophages were transfected. Cancer cell growth was monitored via its fluorescence on an Incucyte® live imaging microscope every four hours. The Effector (CAR macrophage) to Target (cancer cell) ratio was 5:1.
Five different mRNA modifications were also tested to determine if interferon treatment differentially affected macrophages transfected with mRNA comprising different modifications. Human macrophages were electroporated with HER2 CAR mRNA comprising different mRNA modifications. CAR expression and M1 markers were detected by Flow Cytometry (Attune) on day four after electroporation. Day 4 CAR macrophage cells were then co-cultured with a Nuc-Light labeled, HER2+ breast cancer cell line (CRL2351) at an Effector (CAR macrophage) to Target (cancer cell) ratio of 5:1. Cancer cell growth was monitored via its fluorescence on an Incucyte® live imaging microscope every four hours.
Human macrophages were electroporated with 300 nM CAR mRNA comprising m6AGCap1 and PsU modifications. Cells were cultured with 20 ng/mL IFNs for 24 hours and then the cells were washed to remove cytokines. CAR expression was detected by Flow Cytometry (Attune) on day 2 after transfection. Cells were then co-cultured with a Nuc-Light labeled, HER2+ breast cancer cell line (CRL2351) at the Effector to Target ratio of 3:1. Cancer cell growth was monitored via its fluorescence on an Incucyte® live imaging microscope. CAR expression and M1 markers in macrophages were detected by Flow Cytometry (Attune) on day 7 after transfection.

The test system of assay [3] is human macrophages. The assay can be described thus: mCherry mRNA expression in transfected macrophages (Incucyte). The format is cell-based. The conditions noted are these: mCherry mRNA (m6AGCap1 and PsU or N1mPsU), one day, different doses. Here is the method: Human macrophages were transfected with mCherry mRNA comprising m6AGCap1 and PsU or N1mPsU modifications and were then cultured for one day with different doses of IFN-γ. mCherry expression was monitored on an Incucyte® live imaging microscope.
In order to determine whether an RNaseL inhibitor could rescue IFN-γ-induced instability of transfected mRNA, human macrophages were treated with 1 μM sunitinib (an RNaseL inhibitor) two hours prior to the transfection of mCherry mRNA comprising m6AGCap1 and PsU modifications. Transfected cells were then cultured for one day with different dosages of IFN-γ. mCherry expression was monitored on an Incucyte® live imaging microscope.
The effect of another RNaseL inhibitor (RLI or ABCE1) was also tested to further validate the concept. Human macrophages were co-transfected with mRNA encoding mCherry comprising m6AGCap 1 and PsU modifications and with mRNA encoding ABCE1.

Assay [4] has as its system CRL-2351 cells expressing nuclear GFP. The assay can be described thus: Tumor cell killing by macrophages primed on agonist coated plates (Incucyte). It counts as cell-based, human. The conditions noted are these: plate-coated agonist, 3 h priming. As for the experimental part: (§1) To generate Her2-Zeta CAR expressing macrophages, primary human macrophages were suspended in EP buffer (MaxCyte) containing 300 nM mRNA (TriLink) at a concentration of 90×10^6 cells/mL. 100 μL of cell mixture was added to an electroporation cassette (OC100×2; MaxCyte) and electroporated using the Experimental T cell 1 setting. Cells were removed from the cassette, plated in 3 mL of TexMACS media (Miltenyi Biotech) containing 20% FBS (Gibco) on UpCell plates (Thermo Scientific), and incubated overnight at 37 C and 5% CO2.
(§2) Recombinant CD40 ligand (Peprotech), 4-1BB ligand (Enzo Life Sciences), and 4-1BB receptor (Peprotech) were resuspended in molecular grade water to a stock concentration of 100 μg/mL. Stock solution was then used to create working solutions in PBS ranging from 2-0.002 μg/mL. 100 uL of working solution was added to wells in a 96-well plate and left at room temperature for 4 h.
Plates were removed from the incubator and left at room temperature for 30 min. Cells were detached from plate, counted using the NC-200 automated cell counter (Chemomtech), and re-suspended in TexMACS media with 10% FBS. […] Cell lysis was detected using Incucyte® analysis (Essen Bioscience). Tumor cell death was calculated by integrated GFP intensity per well relative to time 0.

Assay [5] concerns Her2-Zeta CAR expressing macrophages. Description: M1 and M2 surface marker expression after agonist priming (flow cytometry). The format is cell-based, human. To be noted: mRNA transduced CAR macrophages, 3 days on agonist coated wells. Here is the method: as §1, §2
For detection of cell surface proteins, macrophages were plated onto wells coated with agonist molecules in a final volume of 200 uL TexMACS media+10% FBS+10 ng/mL GM-CSF and incubated for 3 days at 37 C and 5% CO2. Cells were incubated in 300 μL Accutase (Sigma) for 30 min and transferred to 96-well round bottom plate for staining. Cells were incubated in FACS buffer containing 20 μg/mL Her2-His for 20 min at RT, followed by incubation in Human TruStain FcX for 10 min at RT. […]

As to IFN-α, in assay [1], the “secretion of the cytokines IL-6, IL-8 and TNFα” value is given as “increased secretion”. In assay [2], the “M1 phenotype (based on CD86 expression)” value was “induction of an M1 phenotype” and the “M2 markers (based on CD163 expression)” value is given as “reduction of M2 markers”.

B1: IFN-γ: interferon cytokine that induces an M1 phenotype (protein, UniProt P01579 24-161, looked up)
Interferon gamma: QDPYVKEAENLKKYFNAGHSDVADNGTLFLGILKNWKEESDRKIMQSQIVSFYFKLFKNFKDDQSIQKSVETIKEDMNVKFFNSNKKKRDDFEKLTNYSVTDLNVQRKAIHELIQVMAELSPAAKTGKRKRSQMLFRG
Regarding B1, in assay [3], the mCherry expression result is “reduced mCherry mRNA expression”. The “secretion of the cytokines IL-6, IL-8 and TNFα” value in assay [1] was “increased secretion”. Besides, in assay [2], the “M1 phenotype (based on CD86 expression)” value is on record as “induction of an M1 phenotype” and the “M2 markers (based on CD163 expression)” value is “reduction of M2 markers”.

B2: CD40L: Recombinant CD40 ligand (Peprotech), CD40 agonist (protein, UniProt P29965 113-261, looked up)
CD40 ligand, soluble form: MQKGDQNPQIAAHVISEASSKTTSVLQWAEKGYYTMSNNLVTLENGKQLTVKRQGLYYIYAQVTFCSNREASSQAPFIASLCLKSPGRFERILLRAANTHSSAKPCGQQSIHLGGVFELQPGASVFVNVTDPSQVSHGTGFTSFGLLKL
In the case of B2, the “tumor killing ability of macrophages and CAR macrophages” value in assay [4] is “significantly improved the tumor killing ability”. In assay [5], the “M1 phenotype (expression of M1 and M2 markers)” value was “induced an M1 phenotype”.

Values taken from US11739297B2, “Method of increasing tumor killing activity of macrophages or monocytes comprising chimeric antigen receptor” (Carisma Therapeutics Inc., priority 2020, dated 2023).
